Reference: patent US20190022211A1 (CELLTRION, published 2019)
Where “and” joins values, the source holds several entries; their conditions need not be identical. Equal entries are not always repeated.

How the values were obtained:
[1] = molecular target: G protein of rabies virus Mongoose RSA , on virus (rabies virus); assay: cell-based or functional assay
[2] = molecular target: G protein of rabies virus DR Brazil , on virus (rabies virus); assay: cell-based or functional assay

Binder | neutralizing activity (RFFIT) [1] | neutralizing activity (RFFIT), Titer [1] | neutralizing activity (RFFIT) [2] | neutralizing activity (RFFIT), Titer [2]
antibody 1 (antibody, V domains shown) VH: VQLLQESGPGLAKPSETLSLICTVSGGSISRRRDYWGWIRQPPGRGLEWIGSFFHRGSTYYNPSLESRVSISVDPSKNQFSLHLSSVTVADTAVYYCARHPSTPFAEYLLLPDAFDSWGQGTLVTVSS VL: DIVMTQSPATLSVSPGERATLSCRASQSVRSSLAWYQQRPGQAPRLLISGASTRATDIPARLSGSGSGTEFTLTVSSLQSEDFAVYYCQQYSDWPLTFGGGTKVEIKR | 7.7 IU/mL and 7710 IU/mg | 270 | 2.2 IU/mL and 2240 IU/mg | 56
antibody 2 (antibody, V domains shown) VH: EVQLVESGAEVKKPGASVKVSCKASGYTFTSYDISWVRQAPGQGLEWMGWISTYKGNTNFAQKFQDRVTLTTDTSTTTAYMELRSLTSDDTAVYYCARAKSHPFYDFWSAYYVPGAFDIWGQGTVVTVSS VL: not shown | 9.1 IU/mL and 9140 IU/mg | 320 | 1.8 IU/mL and 1800 IU/mg | 45
